Measurements published in patent US10385103B2, “Cell-permeable (ICP)-SOCS3 recombinant protein and uses thereof” (CELLIVERY THERAPEUTICS, INC., priority 2014, dated 2019).
“Also recorded” adds a separate entry of the source.

Legend:
[1] = tested on: RAW 264.7 cells; assay: Cell-permeability of FITC-labeled SOCS3 recombinant proteins (flow cytometry); assay type: cell-based
Procedure: To examine cell-permeability of SOCS3 recombinant protein, SOCS3 recombinant proteins were conjugated to 5/6-fluorescein isothiocyanate (FITC). RAW 264.7 (KCLB, Seoul, South Korea) (FIG. 20) or NIH3T3 cells (KCLB, Seoul, South Korea) (FIG. 21) were treated with 10 μM FITC-labeled SOCS3 recombinant proteins and cultivated for 1 hr at 37° C.
In this regard, RAW 264.7 cells were cultured in a DMEM medium containing 10% fetal bovine serum (FBS, Hyclone, USA) and […] of 1% penicillin/streptomycin (Hyclone, USA).
After cultivation, the cells were washed three times with ice-cold PBS (Phosphate-buffered saline, Hyclone, USA) and treated with proteinase K (10 μg/mL, SIGMA, USA) to remove surface-bound proteins, and internalized proteins were measured by flow cytometry (FlowJo cytometric analysis software, Guava, Millipore, Darmstadt, Germany). Untreated cells (gray) and equimolar concentration of unconjugated FITC (FITC only, green)-treated cells were served as control (FIG. 20). Each of NIH3T3 cells was incubated for 1 hour at 37° C. with 10 μM FITC-labeled SOCS3 protein. For nuclear staining, a mixture of […] Mounting Medium (Vector laboratories, Burlingame, Calif.) and DAPI (4′,6-diamidino-2-phenylindole) was added to NIH3T3 cells, and visualized using a confocal laser microscope (LSM700, Zeiss, Germany) (FIG. 21).

[2] = tested on: HepG2 cells; assay: Cell-permeability of FITC-labeled SOCS3 recombinant proteins in hepatocellular carcinoma cells (flow cytometry); assay type: cell-based, human; conditions: 10 μM FITC-labeled protein, 1 hr, 37° C.
Procedure: HepG2 cells (ATCC, Manassas, Va., USA) were seeded in a 12 well plate, grown to 90% confluence. Cells were treated with 10 μM FITC-labeled iCP-SOCS3 recombinant proteins and cultivated for 1 hr at 37° C.
After cultivation, the cells were treated with proteinase K (10 ug/mL, SIGMA, USA) and washed three times with ice-cold PBS (Phosphate-buffered saline, Hyclone, USA) to remove surface-bound proteins, and internalized proteins were measured by flow cytometry (FlowJo cytometric analysis software, Guava, Millipore, Darmstadt, Germany). Untreated cells (gray) and equimolar concentration of unconjugated FITC (FITC only, green)-treated cells were served as control (FIG. 57).

[3] = tested on: PANC-1-Luc cells; assay: Tumor targeting in orthotopic pancreatic cancer xenograft model (Alexa680 imaging); assay type: in vivo, Balb/c nu/nu mice; conditions: IV 40 mg/kg Alexa680-labeled protein; listed as iCP-SOCS3, 40 mg/kg
Procedure: Tumor-targeting of the anticancer agent iCP-SOCS3 (HM165S3B) recombinant proteins was investigated in an orthotopic xenograft model. The protocol was adapted from World J Gastroenterol. 2014 Jul. 28; 20(28): 9476-9485. […] After 7 weeks, the mice were IP injected with 100 μl of luciferin (Sigma-Aldrich, St. Louis, Mo., USA) and imaged by Xenogen IVIS-200 imaging system 15 minute later. As shown in FIG. 88 (A), pancreatic cancer model was well established.
The iCP-SOCS3 recombinant proteins were labeled and IV injected to the mice with 40 mg/kg according to a manual of Alexa680 kit (Thermo Fisher Scientific, San Jose, Calif., USA).

[4] = tested on: Chang cell; assay: Cell viability of non-cancer cells, CellTiter-Glo; assay type: cell-based, human; conditions: 10 μM over 4 days
Procedure: Cells originated from human hepatocellular carcinoma cell (Hep3B, HepG2, Huh-7, SK-Hep1), human normal cells (HEK293, HaCaT, Chang liver cell) and mouse fibroblast (NIH3T3) were purchased from ATCC (Manassas, Va., USA) and KCLB (Seoul, Korea). All the cells were maintained as recommended by the supplier. These cells (3×10^3/well) were seeded in 96 well plates. The next day, cells were treated with DMEM (vehicle) or 10 μM recombinant SOCS3 proteins for 96 hrs in the presence of serum (2%). Proteins were replaced daily. Cell growth and survival were evaluated with the CellTiter-Glo Cell Viability Assay (Promega, Madison, Wis.). Measurements using a Luminometer (Turner Designs, Sunnyvale, Calif.) were conducted following the manufacturer's protocol.

[5] = tested on: HepG2 cells; assay: Invasion assay (matrigel-coated Transwell); assay type: cell-based, human; conditions: 24 hrs, compared with the control proteins
Procedure: The lower surface of Transwell inserts (Costar) was coated with 0.1% gelatin, the upper surface of Transwell inserts was coated with matrigel (40 μg per well; BD Pharmingen, San Diego, Calif., USA), and the membranes were allowed to dry for 1 hr at room temperature. The Transwell inserts were assembled into a 24-well plate, and the lower chamber was filled with growth media containing 10% FBS and FGF2 (40 ng/ml). Cells (5×10^5) were added to each upper chamber, and the plate was incubated at 37° C. in a 5% CO2 incubator for 24 hrs. Migrated cells were stained with 0.6% hematoxylin and 0.5% eosin and counted.

[6] = tested on: HepG2 cells; assay: Induction of apoptosis, Annexin V/7-AAD staining; assay type: cell-based, human; conditions: for induction of apoptosis (Annexin V), HepG2, dose dependence: example 20-1
Procedure: (§1) AGS cells (gastric carcinoma cell line) (American Type Culture Collection; ATCC) were seeded in a 12-well plate at a density of 1×10^5 cells/well, and then treated with 10 uM of aMTD/SD-fused SOCS3 for 14 hours. Cancer cell death was analyzed by Annexin V analysis. Annexin V/7-Aminoactinomycin D (7-AAD) staining was performed using flow cytometry according to the manufacturer's guidelines (BD Pharmingen, San Diego, Calif., USA). Briefly, cells were washed three times with ice-cold PBS. The cells were then resuspended in 100 μl of binding buffer and incubated with 1 μl of 7-AAD and 1 μl of annexin V-PE for 30 min in the dark at 37° C. Flow cytometric analysis was immediately performed using a guava easyCyte™ 8 Instrument (Merck Millipore, Darmstadt, Germany).
Annexin V/7-Aminoactinomycin D (7-AAD) staining was performed using flow cytometry according to the manufacturer's guidelines (BD Pharmingen, San Diego, Calif., USA). Briefly, 1×10^6 cells were washed three times with ice-cold PBS. The cells were then resuspended in 100 μl of binding buffer and incubated with 1 μl of 7-AAD and 1 μl of […] for 30 min in the dark at 4° C. Flow cytometric analysis was immediately performed using a guava easyCyte™ 8 Instrument (Merck Millipore, Darmstadt, Germany). In this regard, Cisplatin® (IC50: 30 μM) was used as a reference drug.
(§2) The effect of inducing apoptosis of Chang liver cells was measured in the same manner as in Example 11-2, except that as target cell lines, normal Chang liver cells and hepatocellular carcinoma cell lines, Hep3B, HepG2, Huh7, and SK-HEP-1 were used, and as a reference drug, 5-FU® (IC50: 40 μM) was used.

[7] = tested on: Hep3B cells; assay: Induction of apoptosis, Annexin V/7-AAD staining; assay type: cell-based, human; conditions: example 20-2
Procedure: as §1, §2

[8] = tested on: Huh7 cells; assay: Induction of apoptosis, Annexin V/7-AAD staining; assay type: cell-based, human; conditions: example 20-2
Procedure: as §1, §2

B1: HM165S3B: His-tagged recombinant protein of aMTD165, human SOCS3 and solubilization domain B; prototype improved cell-permeable SOCS3 (protein)
chain: MGSSHHHHHHSSGLVPRGSHMALAVPVALAIVPVTHSKFPAAGMETSRPLDTSLRLKTFSSKSEYQLVVNAVRKLQESGFYWSAVTGGEANLLLSAEPAGTFLIRDSSDQRHFFTLSVKTQSGTKNLRIQCEGGSFSLQSDPRSTQPVPRFDCVLKLVHHYMETPPPGAPSFPSPPTEPSSEVPEQPSAQPLPGSPPRRAYYIYSGGEKIPLVLSRPLSSNVATLQHLCRKTVNGHLDSYEKVTQLPGPIREFLDQYDAPLGSMAEQSDKDVKYYTLEEIQKHKDSKSTWVILHHKVYDLTKFLEEHPGGEEVLGEQAGGDATENFEDVGHSTDARELSKTYIIGELHPDDRSKIAKPSETL
modifications: Amino acid sequence of HM165S3B
dose-dependency of cell-permeability ([1]; 0.05 μM~10 μM, 1 hrs): dose-dependent | cell-permeability (protein uptake) ([1]; 10 μM FITC-labeled protein, 1 hr, 37° C.): efficiently entered the cells; also recorded: very efficient; also recorded: showed the highest cell-permeability; also recorded: high cell permeability | time-dependency of cell-permeability ([1]; 10 μM, 5~180 minutes): high level of cell-permeability of iCP-SOCS3 was observed only 5 minutes post-treatment and could be seen even at 180 minutes mark | transduction into HepG2 cells [2]: promoted the transduction into cultured HCC HepG2 cells | biodistribution / tumor accumulation [3]: delivered to every part of the body at 5 minutes; also recorded: a large amount of the proteins were accumulated only in tumor | cell viability of non-cancer cells (Chang cell) [4]: not overly toxic to normal cells | invasion, HepG2 [5]: remarkable decrease in invasion | induction of apoptosis (Annexin V), HepG2, dose dependence [6]: dose-dependently efficient inducer of apoptosis | induction of apoptosis (Annexin V), HepG2, dose dependence ([6]; listed as iCP-SOCS3): upon treatment of 10 uM or more of iCP-SOCS3, there was no difference in induction of apoptosis | induction of apoptosis (Annexin V), HepG2 ([6]; example 20-2): considerably efficient inducer of apoptosis | induction of apoptosis (Annexin V), Hep3B [7]: considerably efficient inducer of apoptosis | induction of apoptosis (Annexin V), Huh7 [8]: considerably efficient inducer of apoptosis
